Test results as given in patent US20150246949A1, “Desmoglein 2 (DSG2) Binding Proteins and Uses Therefor” (UNIVERSITY OF WASHINGTON THROUGH ITS CENTER FOR …, priority 2012, published 2015).
“Also recorded” adds a separate entry of the source.

What was measured:
[1] = Serum clearance of JO-1 and JO-4 by ELISA; type: in vivo, hDSG2 transgenic mice; details: 2 mg/kg i.v.; for Decline of serum concentration within an hour after injection: TC1-hDSG2 tumors ~600 mm^3, N=3; for Serum concentration plateau: after one hour post-injection
Procedure: (§1) FIG. 11. Pharmacokinetics, toxicity, and immunogenicity of JO-4. A) Serum clearance of JO-1 and JO-4. hDSG2 transgenic mice with subcutaneous TC1-hDSG2 tumors (˜600 mm^3) were intravenously injected with JO-1 or JO-4 (2 mg/kg) and serum samples were analyzed for by ELISA. N=3. Note that the y-axis has a log scale. B) Lymphocyte and platelet counts in hDSG2/TC1-hDSG2 transgenic mice after JO-1 or JO-4 injection. N=3. C) Therapy studies in immunocompetent hDSG2 transgenic mice with TC1-hDSG2 tumors. When tumors reached a volume of ˜80 mm^3, JO-1 or JO-4 (2 mg/kg) or PBS was injected intravenously followed one hour later by PLD/Doxil (i.v. 1.5 mg/kg). Treatment was repeated as indicated by arrows. Tumors were then allowed to re-grow for about two weeks. From day 15 on serum anti-JO-1/J)-4 antibodies were detectable by ELISA. Two more treatment cycles were performed at day 28 and day 35. […] The difference between JO-1/PLD vs JO-4/PLD is significant from day 31 on. N=10.
Two of the affinity enhanced version of JO-1, Y293D and V250F were analyzed in in vivo assay. We called these mutants JO-2 and JO-4, respectively. The first study was performed in a xenograft model derived from A549 cells similar to the study described for FIG. 5B. […] Additional studies were performed in xenograft tumors derived from ovc316 cells (30, 32). Ovc316 cells are Her2/neu positive epithelial tumor cells derived from an ovarian cancer biopsy. These cells can undergo EMT and the reverse process, mesenchymal-to-epithelial-transition (MET), under specific conditions in vitro and in vivo. A subfraction of ovc316 cells that is positive for Nanog, CD133, and E-cadherin is enriched for cancer stem cells, i.e. self-renewing cells with pluripotent potential and tumor forming ability (30). Ovc316 cells therefore closely model the heterogeneity and plasticity seen in tumors in situ. […] Finally, we tested JO-4 in a model for triple-negative breast cancer (TNBC). TNBC is characterized by a lack or minimal expression of estrogen receptor (ER), progesterone receptor (PR) and the absence of Her2/neu overexpression. TNBC accounts for 15% of all breast cancers. Overall survival is poor compared with that in patients who have other phenotypes. A characteristic feature of TNBC is high levels of DSG2 and epithelial junctions. Promising clinical results in the treatment of TNBS have been achieved with nanoparticle, albumin-conjugated paclitaxel (nab-paclitaxel/Abraxane™) alone or in combination with the EGFR-targeting mAb cetuximab/Erbitux™ (38). […] Because of its therapeutic relevance, we further studied JO-4 in an adequate mouse tumor model. […] These mice were subcutaneously implanted with syngeneic TC1-hDSG tumors. […] We also analyzed hematological parameters after i.v. JO-1 and JO-4 injection.

[2] = Blood chemistry and blood cell counts after i.v. injection; type: in vivo, hDSG2 transgenic mice; details: for Blood chemistry / Blood cell counts: after i.v. injection; for Blood cell counts: N=3; for Time of nadir of lymphocyte and platelet counts: p.i.
Procedure: as §1
Two of the affinity enhanced version of JO-1, Y293D and V250F were analyzed in in vivo assay. We called these mutants JO-2 and JO-4, respectively. The first study was performed in a xenograft model derived from A549 cells similar to the study described for FIG. 5B. […] Additional studies were performed in xenograft tumors derived from ovc316 cells (30, 32). Ovc316 cells are Her2/neu positive epithelial tumor cells derived from an ovarian cancer biopsy. These cells can undergo EMT and the reverse process, mesenchymal-to-epithelial-transition (MET), under specific conditions in vitro and in vivo. A subfraction of ovc316 cells that is positive for Nanog, CD133, and E-cadherin is enriched for cancer stem cells, i.e. self-renewing cells with pluripotent potential and tumor forming ability (30). Ovc316 cells therefore closely model the heterogeneity and plasticity seen in tumors in situ. […] Finally, we tested JO-4 in a model for triple-negative breast cancer (TNBC). TNBC is characterized by a lack or minimal expression of estrogen receptor (ER), progesterone receptor (PR) and the absence of Her2/neu overexpression. TNBC accounts for 15% of all breast cancers. Overall survival is poor compared with that in patients who have other phenotypes. A characteristic feature of TNBC is high levels of DSG2 and epithelial junctions. Promising clinical results in the treatment of TNBS have been achieved with nanoparticle, albumin-conjugated paclitaxel (nab-paclitaxel/Abraxane™) alone or in combination with the EGFR-targeting mAb cetuximab/Erbitux™ (38). […] Because of its therapeutic relevance, we further studied JO-4 in an adequate mouse tumor model. […] These mice were subcutaneously implanted with syngeneic TC1-hDSG tumors. When tumors reached a volume of ˜600 mm^3, JO-1 or JO-4 was intravenously injected for safety and efficacy studies. […] After one hour post-injection JO-1 and JO-4 concentration reached a plateau with ˜100 ng/ml. We also analyzed hematological parameters after i.v. JO-1 and JO-4 injection.

A549 xenograft tumors = assay: Enhancement of irinotecan therapy in A549 xenograft tumors; type: in vivo, CB17-SCID/beige mice; details: 2 mg/kg i.v. one hour before irinotecan 37.5 mg/kg i.v.; days 15 and 25; N=5
Procedure: FIG. 5. Correlation of reduced DSG2 binding with the ability to open epithelial junctions. A) Transepithelial electrical resistance (TEER) measured on polarized colon cancer T84 cells. Cells were cultured in transwell chambers until the TEER was constant, i.e. tight junctions had formed. A total of 5 μg of dimeric Ad3 fiber knobs in PBS was then added for 1 hour to the apical chamber. TEER was measured at the indicated time points. N=6. For time points 1.5 and 4 hours the difference between JO-1 vs D261N and N186D was significant (p<0.01). The arrows indicate the addition and removal of Ad3 fiber knobs. B) Enhancement of irinotecan therapy. A total of 4×10^6 A549 cells were injected subcutaneously into CB17-SCID/beige mice. Once the tumor reached a volume of ˜100 mm^3 (day 15 after implantation), the mice were injected intravenously with 2 mg/kg JO-1, E299V, N186D, or PBS, followed by an intravenous injection of irinotecan (37.5 mg/kg) one hour later. The treatment was repeated on day 25. N=5. […] The difference between “irinotecan” vs “JO-1+irinotecan” was significant (p<0.01) from day 20 on.
(§2) FIG. 10. Combination of affinity-enhanced JO-1 versions with chemotherapy. A) Enhancement of irinotecan (I) therapy. The experimental setting was the same as in FIG. 5B. […] N=5. […] Mammary fat pad tumors were established from primary ovarian cancer ovc316 cells. Treatment was started when tumors reached a volume of 100 mm^3 Mice were injected intravenously with 2 mg/kg JO-1 or with 0.5 mg/kg JO-4, followed by an intravenous injection of PEGylated liposomal doxorubicin (PLD) (1 mg/kg) one hour later. Treatment was repeated weekly. […] A total of 4×10^6 TNBC MDA-MB-231 cells were injected into the mammary fat pad of CB17 SCID-beige mice. JO-4 (2 mg/kg) was intravenously injected 1 hour before the application of cetuximab (C) (10 mg/kg, i.p.) and nab-paclitaxel (nab-P) (5 mg/kg, i.v). Treatment was given weekly. N=10 P<0.01 at day 25 for nab-P+C vs JO-4+nab-P+C.
A549, MDA-MB-231, and ovc316 xenograft tumors were established by injection of the corresponding tumor cells into the mammary fat pad (1:1 with Matrigel) of CB17 mice. TC1-DSG2 tumors were established by subcutaneous injection of TC1-DSG2 cells into DSG2 transgenic mice. JO-0, JO-1, JO-2, or JO-4 were intravenously injected one hour before the application of chemotherapeutic drugs: Irinotecan/Camptosar™ (Pfizer Inc., Groton, Conn.), PEGylated liposomal doxorubicin/Lipodox™ (Sun Pharmaceuticals IN, India), cetuximab/Erbitux™ (ImClone, Somerville, N.J.), nanoparticle albumin conjugated paclitaxel/Abraxane™ (Abraxis Biosciences, Summit N.J.). Tumor volumes were measured three times a week. Each treatment group consisted of a minimum of 5 mice.

[3] = system: MDA-MB-231 orthotopic TNBC tumors; assay: Enhancement of nab-paclitaxel/cetuximab therapy in triple negative breast cancer model; type: in vivo, CB17 SCID-beige mice; details: 2 mg/kg i.v. 1 hour before cetuximab 10 mg/kg i.p. and nab-paclitaxel 5 mg/kg i.v., weekly; N=10
Procedure: as §2
A549, MDA-MB-231, and ovc316 xenograft tumors were established by injection of the corresponding tumor cells into the mammary fat pad (1:1 with Matrigel) of CB17 mice. TC1-DSG2 tumors were established by subcutaneous injection of TC1-DSG2 cells into DSG2 transgenic mice. […] Tumor volumes were measured three times a week. […]

Molecule | Decline of serum concentration within an hour after injection [1] | Serum concentration plateau [1] [ng/mL] | Blood chemistry [2] | Blood cell counts [2] | Time of nadir of lymphocyte and platelet counts [2] [h] | Enhancement of irinotecan therapy (A549 xenograft tumors) | Enhancement of nab-paclitaxel/cetuximab therapy [3] | Lymphocyte and platelet counts compared with JO-1 ([2]; nadir at 24 hours p.i. and recovery)
JO-1: recombinant protein with the Ad3 fiber knob and a domain for self-dimerization of trimeric knobs (SEQ ID NO:27) (protein) MKVSALKEKVSALKEKVSALKEKVSALKEKVSALKEGSGGGSGGGSGGGSNSIALKNNTLWTGPKPEANCIIEYGKQNPDSKLTLILVKNGGIVNGYVTLMGASDYVNTLFKNKNVSINVELYFDATGHILPDSSSLKTDLELKYKQTADFSARGFMPSTTAYPFVLPNAGTHNENYIFGQCYYKASDGALFPLEVTVMLNKRLPDSRTSYVMTFLWSLNAGLAPETTQATLITSPFTFSYIREDD | declined more than one order of magnitude | ~100 | did not show abnormal changes | normal except for lymphocyte and platelet number, which decreased early after injection | 24 | enhanced irinotecan therapy; also recorded: significant |  | 
JO-4 (protein) MKVSALKEKVSALKEKVSALKEKVSALKEKVSALKEGSGGGSGGGSGGGSNSIALKNNTLWTGPKPEANCIIEYGKQNPDSKLTLILVKNGGIVNGYVTLMGASDYVNTLFKNKNVSINVELYFDATGHILPDSSSLKTDLELKYKQTADFSARGFMPSTTAYPFVLPNAGTHNENFIFGQCYYKASDGALFPLEVTVMLNKRLPDSRTSYVMTFLWSLNAGLAPETTQATLITSPFTFSYIREDD | declined more than one order of magnitude; also recorded: significantly greater | ~100 | did not show abnormal changes | normal except for lymphocyte and platelet number, which decreased early after injection | 24 | increased irinotecan therapy significantly more than JO-1; also recorded: significantly more efficient than JO-2; also recorded: significant from day 20 on | significantly increased nab-paclitaxel/cetuximab therapy; also recorded: enhances therapy | significantly lower numbers; also recorded: returned to normal levels faster
